Starred links: 1 amine or outer side, 2 acyl side, 3 side chain; linkers in the order of their positions; H or OH if unused. Non-standard residues stand in square brackets, D forms with d. Groups on a side chain read outwards from the residue. No end group written: not given here. *: point of attachment. C20 diacid = O=C(O)CCCCCCCCCCCCCCCCCCC(=O)*; C18 diacid = O=C(O)CCCCCCCCCCCCCCCCC(=O)*; γGlu = O=C(O)[C@H](CCC(=O)[*:2])N[*:1]; αMeF = C[C@](N)(Cc1ccccc1)C(=O)O; AEEA = NCCOCCOCC(=O)O; Aib = CC(C)(N)C(=O)O
Legend:
[1] = target: human glucagon receptor (human, UniProt P47871); assay: cell-based or functional assay
[2] = target: human GLP-1 receptor (human, UniProt P43220); assay: cell-based or functional assay

| Binder | cAMP production EC50 [1] [pM] | cAMP production EC50 [2] [pM] |
| --- | --- | --- |
| H[Aib]QGTFTSDVSK[αMeF]LDRK([AEEA-AEEA-γGlu-C20 diacid])RAQDFVRWLV[Aib]E-NH2 (N-terminus assumed; SMILES CC(C)C[C@H](NC(=O)[C@H](Cc1c[nH]c2ccccc12)NC(=O)[C@H](CCCNC(=N)N)NC(=O)[C@@H](NC(=O)[C@H](Cc1ccccc1)NC(=O)[C@H](CC(=O)O)NC(=O)[C@H](CCC(N)=O)NC(=O)[C@H](C)NC(=O)[C@H](CCCNC(=N)N)NC(=O)[C@H](CCCCNC(=O)COCCOCCNC(=O)COCCOCCNC(=O)CC[C@H](NC(=O)CCCCCCCCCCCCCCCCCCC(=O)O)C(=O)O)NC(=O)[C@H](CCCNC(=N)N)NC(=O)[C@H](CC(=O)O)NC(=O)[C@H](CC(C)C)NC(=O)[C@](C)(Cc1ccccc1)NC(=O)[C@H](CCCCN)NC(=O)[C@H](CO)NC(=O)[C@@H](NC(=O)[C@H](CC(=O)O)NC(=O)[C@H](CO)NC(=O)[C@@H](NC(=O)[C@H](Cc1ccccc1)NC(=O)[C@@H](NC(=O)CNC(=O)[C@H](CCC(N)=O)NC(=O)C(C)(C)NC(=O)[C@@H](N)Cc1c[nH]cn1)[C@@H](C)O)[C@@H](C)O)C(C)C)C(C)C)C(=O)N[C@H](C(=O)NC(C)(C)C(=O)N[C@@H](CCC(=O)O)C(N)=O)C(C)C) [Peptide 437] | 96.9 | 26.9 |
| H[Aib]QGTFTSDVSK[αMeF]LDKK([AEEA-AEEA-γGlu-C18 diacid])RAQDFVRWLEA[Aib]G-NH2 (N-terminus assumed; SMILES CC(C)C[C@H](NC(=O)[C@H](Cc1c[nH]c2ccccc12)NC(=O)[C@H](CCCNC(=N)N)NC(=O)[C@@H](NC(=O)[C@H](Cc1ccccc1)NC(=O)[C@H](CC(=O)O)NC(=O)[C@H](CCC(N)=O)NC(=O)[C@H](C)NC(=O)[C@H](CCCNC(=N)N)NC(=O)[C@H](CCCCNC(=O)COCCOCCNC(=O)COCCOCCNC(=O)CC[C@H](NC(=O)CCCCCCCCCCCCCCCCC(=O)O)C(=O)O)NC(=O)[C@H](CCCCN)NC(=O)[C@H](CC(=O)O)NC(=O)[C@H](CC(C)C)NC(=O)[C@](C)(Cc1ccccc1)NC(=O)[C@H](CCCCN)NC(=O)[C@H](CO)NC(=O)[C@@H](NC(=O)[C@H](CC(=O)O)NC(=O)[C@H](CO)NC(=O)[C@@H](NC(=O)[C@H](Cc1ccccc1)NC(=O)[C@@H](NC(=O)CNC(=O)[C@H](CCC(N)=O)NC(=O)C(C)(C)NC(=O)[C@@H](N)Cc1c[nH]cn1)[C@@H](C)O)[C@@H](C)O)C(C)C)C(C)C)C(=O)N[C@@H](CCC(=O)O)C(=O)N[C@@H](C)C(=O)NC(C)(C)C(=O)NCC(N)=O) [Peptide 438] | 68.9 | 17.9 |
| H[Aib]QGTFTSDVSK[αMeF]LDRK([AEEA-AEEA-γGlu-C18 diacid])RAQDFVRWLL[Aib]E-NH2 (N-terminus assumed; SMILES CC(C)C[C@H](NC(=O)[C@H](Cc1c[nH]c2ccccc12)NC(=O)[C@H](CCCNC(=N)N)NC(=O)[C@@H](NC(=O)[C@H](Cc1ccccc1)NC(=O)[C@H](CC(=O)O)NC(=O)[C@H](CCC(N)=O)NC(=O)[C@H](C)NC(=O)[C@H](CCCNC(=N)N)NC(=O)[C@H](CCCCNC(=O)COCCOCCNC(=O)COCCOCCNC(=O)CC[C@H](NC(=O)CCCCCCCCCCCCCCCCC(=O)O)C(=O)O)NC(=O)[C@H](CCCNC(=N)N)NC(=O)[C@H](CC(=O)O)NC(=O)[C@H](CC(C)C)NC(=O)[C@](C)(Cc1ccccc1)NC(=O)[C@H](CCCCN)NC(=O)[C@H](CO)NC(=O)[C@@H](NC(=O)[C@H](CC(=O)O)NC(=O)[C@H](CO)NC(=O)[C@@H](NC(=O)[C@H](Cc1ccccc1)NC(=O)[C@@H](NC(=O)CNC(=O)[C@H](CCC(N)=O)NC(=O)C(C)(C)NC(=O)[C@@H](N)Cc1c[nH]cn1)[C@@H](C)O)[C@@H](C)O)C(C)C)C(C)C)C(=O)N[C@@H](CC(C)C)C(=O)NC(C)(C)C(=O)N[C@@H](CCC(=O)O)C(N)=O) [Peptide 439] | 57.7 | 30.6 |
| H[Aib]QGTFTSDVSK[αMeF]LDKK([AEEA-AEEA-γGlu-C20 diacid])RARDFVRWLL[Aib]E-OH (N-terminus assumed; SMILES CC(C)C[C@H](NC(=O)[C@H](Cc1c[nH]c2ccccc12)NC(=O)[C@H](CCCNC(=N)N)NC(=O)[C@@H](NC(=O)[C@H](Cc1ccccc1)NC(=O)[C@H](CC(=O)O)NC(=O)[C@H](CCCNC(=N)N)NC(=O)[C@H](C)NC(=O)[C@H](CCCNC(=N)N)NC(=O)[C@H](CCCCNC(=O)COCCOCCNC(=O)COCCOCCNC(=O)CC[C@H](NC(=O)CCCCCCCCCCCCCCCCCCC(=O)O)C(=O)O)NC(=O)[C@H](CCCCN)NC(=O)[C@H](CC(=O)O)NC(=O)[C@H](CC(C)C)NC(=O)[C@](C)(Cc1ccccc1)NC(=O)[C@H](CCCCN)NC(=O)[C@H](CO)NC(=O)[C@@H](NC(=O)[C@H](CC(=O)O)NC(=O)[C@H](CO)NC(=O)[C@@H](NC(=O)[C@H](Cc1ccccc1)NC(=O)[C@@H](NC(=O)CNC(=O)[C@H](CCC(N)=O)NC(=O)C(C)(C)NC(=O)[C@@H](N)Cc1c[nH]cn1)[C@@H](C)O)[C@@H](C)O)C(C)C)C(C)C)C(=O)N[C@@H](CC(C)C)C(=O)NC(C)(C)C(=O)N[C@@H](CCC(=O)O)C(=O)O) [Peptide 440] | 81 | 154 |
| H[Aib]QGTFTSDVSK[αMeF]LDKK([AEEA-AEEA-γGlu-C20 diacid])RAQDFVRWLL[Aib]E-NH2 (N-terminus assumed; SMILES CC(C)C[C@H](NC(=O)[C@H](Cc1c[nH]c2ccccc12)NC(=O)[C@H](CCCNC(=N)N)NC(=O)[C@@H](NC(=O)[C@H](Cc1ccccc1)NC(=O)[C@H](CC(=O)O)NC(=O)[C@H](CCC(N)=O)NC(=O)[C@H](C)NC(=O)[C@H](CCCNC(=N)N)NC(=O)[C@H](CCCCNC(=O)COCCOCCNC(=O)COCCOCCNC(=O)CC[C@H](NC(=O)CCCCCCCCCCCCCCCCCCC(=O)O)C(=O)O)NC(=O)[C@H](CCCCN)NC(=O)[C@H](CC(=O)O)NC(=O)[C@H](CC(C)C)NC(=O)[C@](C)(Cc1ccccc1)NC(=O)[C@H](CCCCN)NC(=O)[C@H](CO)NC(=O)[C@@H](NC(=O)[C@H](CC(=O)O)NC(=O)[C@H](CO)NC(=O)[C@@H](NC(=O)[C@H](Cc1ccccc1)NC(=O)[C@@H](NC(=O)CNC(=O)[C@H](CCC(N)=O)NC(=O)C(C)(C)NC(=O)[C@@H](N)Cc1c[nH]cn1)[C@@H](C)O)[C@@H](C)O)C(C)C)C(C)C)C(=O)N[C@@H](CC(C)C)C(=O)NC(C)(C)C(=O)N[C@@H](CCC(=O)O)C(N)=O) [Peptide 441] | 72.8 | 62.7 |
| H[Aib]QGTFTSDVSK[αMeF]LDKK([AEEA-AEEA-γGlu-C18 diacid])RAQDFVRWLLE[Aib]G-NH2 (N-terminus assumed; SMILES CC(C)C[C@H](NC(=O)[C@H](Cc1c[nH]c2ccccc12)NC(=O)[C@H](CCCNC(=N)N)NC(=O)[C@@H](NC(=O)[C@H](Cc1ccccc1)NC(=O)[C@H](CC(=O)O)NC(=O)[C@H](CCC(N)=O)NC(=O)[C@H](C)NC(=O)[C@H](CCCNC(=N)N)NC(=O)[C@H](CCCCNC(=O)COCCOCCNC(=O)COCCOCCNC(=O)CC[C@H](NC(=O)CCCCCCCCCCCCCCCCC(=O)O)C(=O)O)NC(=O)[C@H](CCCCN)NC(=O)[C@H](CC(=O)O)NC(=O)[C@H](CC(C)C)NC(=O)[C@](C)(Cc1ccccc1)NC(=O)[C@H](CCCCN)NC(=O)[C@H](CO)NC(=O)[C@@H](NC(=O)[C@H](CC(=O)O)NC(=O)[C@H](CO)NC(=O)[C@@H](NC(=O)[C@H](Cc1ccccc1)NC(=O)[C@@H](NC(=O)CNC(=O)[C@H](CCC(N)=O)NC(=O)C(C)(C)NC(=O)[C@@H](N)Cc1c[nH]cn1)[C@@H](C)O)[C@@H](C)O)C(C)C)C(C)C)C(=O)N[C@@H](CC(C)C)C(=O)N[C@@H](CCC(=O)O)C(=O)NC(C)(C)C(=O)NCC(N)=O) [Peptide 442] | 35.8 | 19.1 |
| H[Aib]QGTFTSDVSK[αMeF]LDKK([AEEA-AEEA-γGlu-C18 diacid])RARDFVRWLL[Aib]E-NH2 (N-terminus assumed; SMILES CC(C)C[C@H](NC(=O)[C@H](Cc1c[nH]c2ccccc12)NC(=O)[C@H](CCCNC(=N)N)NC(=O)[C@@H](NC(=O)[C@H](Cc1ccccc1)NC(=O)[C@H](CC(=O)O)NC(=O)[C@H](CCCNC(=N)N)NC(=O)[C@H](C)NC(=O)[C@H](CCCNC(=N)N)NC(=O)[C@H](CCCCNC(=O)COCCOCCNC(=O)COCCOCCNC(=O)CC[C@H](NC(=O)CCCCCCCCCCCCCCCCC(=O)O)C(=O)O)NC(=O)[C@H](CCCCN)NC(=O)[C@H](CC(=O)O)NC(=O)[C@H](CC(C)C)NC(=O)[C@](C)(Cc1ccccc1)NC(=O)[C@H](CCCCN)NC(=O)[C@H](CO)NC(=O)[C@@H](NC(=O)[C@H](CC(=O)O)NC(=O)[C@H](CO)NC(=O)[C@@H](NC(=O)[C@H](Cc1ccccc1)NC(=O)[C@@H](NC(=O)CNC(=O)[C@H](CCC(N)=O)NC(=O)C(C)(C)NC(=O)[C@@H](N)Cc1c[nH]cn1)[C@@H](C)O)[C@@H](C)O)C(C)C)C(C)C)C(=O)N[C@@H](CC(C)C)C(=O)NC(C)(C)C(=O)N[C@@H](CCC(=O)O)C(N)=O) [Peptide 443] | 22.4 | 20.6 |
| H[Aib]QGTFTSDVSK[αMeF]LETK([AEEA-AEEA-γGlu-C18 diacid])RARDFVQWLLE[Aib]G-OH (not fully specified) [Peptide 444] | 1760 | 247 |
| H[Aib]QGTFTSDVSK[αMeF]LETK([AEEA-AEEA-γGlu-C18 diacid])RARDFVQWLLE[Aib]G-OH [Peptide 445] | 684 | 33 |
